Patent US20250163182A1 (Janssen / Centocor, published 2025)

Columns and labels:
human ENPP3 = target: T1, human ENPP3 (human, UniProt O14638 46-875, limits assumed); assay: affinity; method and construct not stated
T1 construct: neither the construct nor the method is stated; also called ectonucleotide pyrophosphatase/phosphodiesterase family member 3
T1 sequence (looked up): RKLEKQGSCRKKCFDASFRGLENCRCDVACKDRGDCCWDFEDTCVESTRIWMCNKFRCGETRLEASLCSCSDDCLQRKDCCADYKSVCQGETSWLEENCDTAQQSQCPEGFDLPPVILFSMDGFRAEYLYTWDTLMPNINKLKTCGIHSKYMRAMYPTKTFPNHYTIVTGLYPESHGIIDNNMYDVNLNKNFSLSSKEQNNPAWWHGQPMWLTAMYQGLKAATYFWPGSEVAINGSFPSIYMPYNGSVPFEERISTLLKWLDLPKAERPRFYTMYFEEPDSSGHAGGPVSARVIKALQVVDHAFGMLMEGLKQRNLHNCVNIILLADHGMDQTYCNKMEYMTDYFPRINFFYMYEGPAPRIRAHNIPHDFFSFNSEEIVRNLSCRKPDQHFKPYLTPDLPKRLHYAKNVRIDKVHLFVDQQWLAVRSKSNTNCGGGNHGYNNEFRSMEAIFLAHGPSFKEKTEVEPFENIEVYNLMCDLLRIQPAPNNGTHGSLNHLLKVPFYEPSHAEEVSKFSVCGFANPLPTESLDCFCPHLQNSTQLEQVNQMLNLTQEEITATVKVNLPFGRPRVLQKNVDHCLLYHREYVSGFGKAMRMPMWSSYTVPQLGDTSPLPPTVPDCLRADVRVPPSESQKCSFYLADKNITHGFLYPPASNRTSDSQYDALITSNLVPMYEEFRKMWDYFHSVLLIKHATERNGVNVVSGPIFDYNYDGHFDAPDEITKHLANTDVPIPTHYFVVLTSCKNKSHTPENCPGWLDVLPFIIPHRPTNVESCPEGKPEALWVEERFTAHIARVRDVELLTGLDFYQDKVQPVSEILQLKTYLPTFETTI

human CD3 = target: T2, human CD3 (human, UniProt P07766 23-126, limits assumed); assay: affinity; method and construct not stated
T2 construct: also called CD3 epsilon

human ENPP3 on cells [1] = target: T3, human ENPP3 on cells (human, UniProt O14638 1-875); assay: flow cytometry on CHO ENPP3 OE cells
T3 construct: whole, on cells; also called ENPP3 on A704, VMRCRCW, HepG2, TUHR4TKB, TUHR10TKB; CHO-K1 ENPP3 OE
T3 sequence (looked up): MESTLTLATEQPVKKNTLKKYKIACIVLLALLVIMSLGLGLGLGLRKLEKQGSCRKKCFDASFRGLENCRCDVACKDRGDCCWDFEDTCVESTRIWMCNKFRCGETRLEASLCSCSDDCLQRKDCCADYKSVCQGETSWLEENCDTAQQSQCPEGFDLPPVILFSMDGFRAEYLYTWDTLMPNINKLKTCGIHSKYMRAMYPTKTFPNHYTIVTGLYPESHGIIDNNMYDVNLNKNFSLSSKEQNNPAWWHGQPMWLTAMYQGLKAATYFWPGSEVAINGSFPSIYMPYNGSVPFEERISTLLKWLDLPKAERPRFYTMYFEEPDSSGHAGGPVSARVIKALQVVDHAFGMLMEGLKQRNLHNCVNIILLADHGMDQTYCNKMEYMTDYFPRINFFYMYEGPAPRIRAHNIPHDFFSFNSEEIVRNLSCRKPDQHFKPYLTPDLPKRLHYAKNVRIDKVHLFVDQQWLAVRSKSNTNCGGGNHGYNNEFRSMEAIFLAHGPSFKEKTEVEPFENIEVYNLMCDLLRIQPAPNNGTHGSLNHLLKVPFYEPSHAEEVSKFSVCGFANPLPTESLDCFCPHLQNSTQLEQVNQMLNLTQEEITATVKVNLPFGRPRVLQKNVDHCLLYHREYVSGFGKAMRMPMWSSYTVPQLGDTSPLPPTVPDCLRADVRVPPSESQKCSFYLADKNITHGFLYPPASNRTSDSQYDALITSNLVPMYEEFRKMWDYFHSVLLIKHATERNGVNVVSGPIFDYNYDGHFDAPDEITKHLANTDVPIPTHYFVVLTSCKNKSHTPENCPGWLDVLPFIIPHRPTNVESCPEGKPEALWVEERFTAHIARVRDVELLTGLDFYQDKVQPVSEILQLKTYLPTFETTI

human CD3 on T cells = target: T4, human CD3 on T cells (human, UniProt P07766 23-207); assay: flow cytometry on human T cells, average of 6 donors
T4 construct: on T cells it stands in the TCR-CD3 complex; also called human T cells; T cells isolated from healthy human donors

human ENPP3 on cells [2] = target: T3, human ENPP3 on cells; assay: flow cytometry on VMRCRCW cells
human ENPP3 on cells [3] = target: T3, human ENPP3 on cells; assay: cell-based or functional assay

T2 sequence (P07766 23-126 limits assumed): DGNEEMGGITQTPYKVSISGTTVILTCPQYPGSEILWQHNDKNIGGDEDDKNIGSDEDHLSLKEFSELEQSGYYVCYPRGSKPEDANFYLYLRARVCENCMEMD
T4 sequence (P07766 23-207 limits assumed): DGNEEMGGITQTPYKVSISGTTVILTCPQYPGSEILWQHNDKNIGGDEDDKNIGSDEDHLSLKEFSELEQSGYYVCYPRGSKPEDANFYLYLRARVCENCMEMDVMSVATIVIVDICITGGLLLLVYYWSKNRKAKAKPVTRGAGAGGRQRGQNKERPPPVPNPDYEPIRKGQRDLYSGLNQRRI

B1: NPP3B815 (bispecific antibody, human IgG1, kappa, L234A L235A)
heavy 1: EIVLTQSPATLSASPGERVTLSCSASSSVSYMNWYQQKPGCAPRRWIYDSSKLASGVPARFSGSGSGRDYTLTISSLEPEDFAVYYCQQWSRNPPTFGGGTKVEIKGGGSGGSGGCPPCGGSGGQVQLVQSGAEVKKPGSSVKVSCKASGYTFTRSTMHWVKQAPGQGLEWIGYINPSSAYTNYNQKFQGRVTLTADKSTSTAYMELSSLRSEDTAVYYCASPQVHYDYAGFPYWGCGTLVTVSSEPKSSDKTHTCPPCPAPEAAGGPSVFLFPPKPKDTLMISRTPEVTCVVVSVSHEDPEVKFNWYVDGVEVHNAKTKPREEQYNSTYRVVSVLTVLHQDWLNGKEYKCKVSNKALPAPIEKTISKAKGQPREPQVYTLPPSREEMTKNQVSLWCLVKGFYPSDIAVEWESNGQPENNYKTTPPVLDSDGSFFLYSKLTVDKSRWQQGNVFSCSVMHEALHNHYTQKSLSLSPGK
heavy 2: EVQLVESGGGRVKPGGSLRLSCAASGFTFSDYSMNWVRQAPGKGLEWVSSISSISSYVKYADSVKGRFTMSRDNAKNSLFLQMNSLRDEDMAVYYCARGHYFDYWGQGTLVTVSSASTKGPSVFPLAPSSKSTSGGTAALGCLVKDYFPEPVTVSWNSGALTSGVHTFPAVLQSSGLYSLSSVVTVPSSSLGTQTYICNVNHKPSNTKVDKKVEPKSCDKTHTCPPCPAPEAAGGPSVFLFPPKPKDTLMISRTPEVTCVVVSVSHEDPEVKFNWYVDGVEVHNAKTKPREEQYNSTYRVVSVLTVLHQDWLNGKEYKCKVSNKALPAPIEKTISKAKGQPREPQVYTLPPSREEMTKNQVSLSCAVKGFYPSDIAVEWESNGQPENNYKTTPPVLDSDGSFFLVSKLTVDKSRWQQGNVFSCSVMHEALHNRFTQKSLSLSPGK
light: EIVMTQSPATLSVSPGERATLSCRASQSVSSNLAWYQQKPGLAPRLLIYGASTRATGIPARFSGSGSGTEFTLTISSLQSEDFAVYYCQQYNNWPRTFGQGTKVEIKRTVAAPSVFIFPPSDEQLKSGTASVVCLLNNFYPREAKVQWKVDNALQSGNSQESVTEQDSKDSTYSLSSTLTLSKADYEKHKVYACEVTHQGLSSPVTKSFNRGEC
notes: HC2 carries the NPP3B56 Fab and the hole T366S, L368A, Y407V; Fc with L234A, L235A, D265S; The CPPC linker cysteines form disulfides with engineered Cys at L42 and H105 (Chothia); also called NPP3B56×CD3B2030-N106A; ENPP3×CD3 (NPP3B815)
Kd (human ENPP3): 0.92 nM | Kd (human CD3): 110 nM | EC50 (human ENPP3 on cells [1]): 0.51 nM | EC50 (human CD3 on T cells): 177 nM | EC50 (human ENPP3 on cells [2]): 0.5 nM | killing EC50 @ 72 hrs; A704; T-cell donor 110040278; E:T 1:1 (human ENPP3 on cells [3]): 0.075 nM | killing EC50 @ 72 hrs; A704; T-cell donor 110040278; E:T 3:1 (human ENPP3 on cells [3]): 0.0484 nM | killing EC50 @ 72 hrs; A704; T-cell donor 110042496; E:T 1:1 (human ENPP3 on cells [3]): 0.132 nM | killing EC50 @ 72 hrs; A704; T-cell donor 110042496; E:T 3:1 (human ENPP3 on cells [3]): 0.0696 nM | killing EC50 @ 72 hrs; A704; T-cell donor 110042593; E:T 1:1 (human ENPP3 on cells [3]): 0.114 nM | killing EC50 @ 72 hrs; A704; T-cell donor 110042593; E:T 3:1 (human ENPP3 on cells [3]): 0.0336 nM | killing EC50 @ 72 hrs; A704; T-cell donor 110044049; E:T 3:1 (human ENPP3 on cells [3]): 0.0524 nM | killing EC50 @ 72 hrs; A704; T-cell donor 888668965; E:T 3:1 (human ENPP3 on cells [3]): 0.0454 nM | killing EC50 @ 72 hrs; VMRCRCW; T-cell donor 110040278; E:T 1:1 (human ENPP3 on cells [3]): 0.243 nM | killing EC50 @ 72 hrs; VMRCRCW; T-cell donor 110040278; E:T 1:3 (human ENPP3 on cells [3]): 0.456 nM | killing EC50 @ 72 hrs; VMRCRCW; T-cell donor 110040278; E:T 3:1 (human ENPP3 on cells [3]): 0.0923 nM | killing EC50 @ 72 hrs; VMRCRCW; T-cell donor 110042496; E:T 1:1 (human ENPP3 on cells [3]): 0.465 nM | killing EC50 @ 72 hrs; VMRCRCW; T-cell donor 110042496; E:T 3:1 (human ENPP3 on cells [3]): 0.128 nM | killing EC50 @ 72 hrs; VMRCRCW; T-cell donor 110042593; E:T 1:1 (human ENPP3 on cells [3]): 0.225 nM | killing EC50 @ 72 hrs; VMRCRCW; T-cell donor 110042593; E:T 3:1 (human ENPP3 on cells [3]): 0.0795 nM | killing EC50 @ 72 hrs; VMRCRCW; T-cell donor 110044049; E:T 1:1 (human ENPP3 on cells [3]): 0.151 nM | killing EC50 @ 72 hrs; VMRCRCW; T-cell donor 110044049; E:T 1:3 (human ENPP3 on cells [3]): 0.226 nM | killing EC50 @ 72 hrs; VMRCRCW; T-cell donor 110044049; E:T 3:1 (human ENPP3 on cells [3]): 0.115 nM | killing EC50 @ 72 hrs; VMRCRCW; T-cell donor 110048457; E:T 1:1 (human ENPP3 on cells [3]): 0.177 nM | killing EC50 @ 72 hrs; VMRCRCW; T-cell donor 110048457; E:T 1:3 (human ENPP3 on cells [3]): 0.276 nM | killing EC50 @ 72 hrs; VMRCRCW; T-cell donor 110048457; E:T 3:1 (human ENPP3 on cells [3]): 0.372 nM | killing EC50 @ 72 hrs; VMRCRCW; T-cell donor 888668965; E:T 1:1 (human ENPP3 on cells [3]): 0.273 nM | killing EC50 @ 72 hrs; VMRCRCW; T-cell donor 888668965; E:T 1:3 (human ENPP3 on cells [3]): 0.469 nM | killing EC50 @ 72 hrs; VMRCRCW; T-cell donor 888668965; E:T 3:1 (human ENPP3 on cells [3]): 0.156 nM | killing EC50 @ 120 hrs; A704; T-cell donor 110040278; E:T 1:1 (human ENPP3 on cells [3]): 0.041 nM | killing EC50 @ 120 hrs; A704; T-cell donor 110040278; E:T 1:3 (human ENPP3 on cells [3]): 0.149 nM | killing EC50 @ 120 hrs; A704; T-cell donor 110042496; E:T 1:1 (human ENPP3 on cells [3]): 0.073 nM | killing EC50 @ 120 hrs; A704; T-cell donor 110042496; E:T 1:3 (human ENPP3 on cells [3]): 0.191 nM | killing EC50 @ 120 hrs; A704; T-cell donor 110042593; E:T 1:1 (human ENPP3 on cells [3]): 0.048 nM | killing EC50 @ 120 hrs; A704; T-cell donor 110042593; E:T 1:3 (human ENPP3 on cells [3]): 0.106 nM | killing EC50 @ 120 hrs; A704; T-cell donor 110044049; E:T 1:1 (human ENPP3 on cells [3]): 0.125 nM | killing EC50 @ 120 hrs; A704; T-cell donor 888668965; E:T 1:3 (human ENPP3 on cells [3]): 0.163 nM | killing EC50 @ 120 hrs; VMRCRCW; T-cell donor 110040278; E:T 1:1 (human ENPP3 on cells [3]): 0.264 nM | killing EC50 @ 120 hrs; VMRCRCW; T-cell donor 110040278; E:T 1:3 (human ENPP3 on cells [3]): 0.332 nM | killing EC50 @ 120 hrs; VMRCRCW; T-cell donor 110042496; E:T 1:1 (human ENPP3 on cells [3]): 0.454 nM | killing EC50 @ 120 hrs; VMRCRCW; T-cell donor 110042496; E:T 1:3 (human ENPP3 on cells [3]): 0.5 nM | killing EC50 @ 120 hrs; VMRCRCW; T-cell donor 110042593; E:T 1:1 (human ENPP3 on cells [3]): 0.218 nM | killing EC50 @ 120 hrs; VMRCRCW; T-cell donor 110042593; E:T 1:3 (human ENPP3 on cells [3]): 0.485 nM | killing EC50 @ 120 hrs; VMRCRCW; T-cell donor 110044049; E:T 1:1 (human ENPP3 on cells [3]): 0.216 nM | killing EC50 @ 120 hrs; VMRCRCW; T-cell donor 110044049; E:T 1:3 (human ENPP3 on cells [3]): 0.337 nM | killing EC50 @ 120 hrs; VMRCRCW; T-cell donor 110048457; E:T 1:1 (human ENPP3 on cells [3]): 0.21 nM | killing EC50 @ 120 hrs; VMRCRCW; T-cell donor 110048457; E:T 1:3 (human ENPP3 on cells [3]): 0.267 nM | killing EC50 @ 120 hrs; VMRCRCW; T-cell donor 888668965; E:T 1:1 (human ENPP3 on cells [3]): 0.345 nM | killing EC50 @ 120 hrs; VMRCRCW; T-cell donor 888668965; E:T 1:3 (human ENPP3 on cells [3]): 0.379 nM
